Experimental data taken from publication PMC10858392 (Cell reports, 2023).

Experiments:
Test in all cases: ELISA
[1] = molecular target: human insulin (Homo sapiens, UniProt P01308)
[2] = molecular target: albumin from human serum, low endotoxin (Homo sapiens, UniProt P02768)
[3] = molecular target: lysozyme from chicken egg white (Gallus gallus, UniProt P00698)
[4] = molecular target: ubiquitin (in-house) (Homo sapiens, UniProt P0CG47)

Measured: binding result

Chain of albumin from human serum, low endotoxin (P02768 25-609): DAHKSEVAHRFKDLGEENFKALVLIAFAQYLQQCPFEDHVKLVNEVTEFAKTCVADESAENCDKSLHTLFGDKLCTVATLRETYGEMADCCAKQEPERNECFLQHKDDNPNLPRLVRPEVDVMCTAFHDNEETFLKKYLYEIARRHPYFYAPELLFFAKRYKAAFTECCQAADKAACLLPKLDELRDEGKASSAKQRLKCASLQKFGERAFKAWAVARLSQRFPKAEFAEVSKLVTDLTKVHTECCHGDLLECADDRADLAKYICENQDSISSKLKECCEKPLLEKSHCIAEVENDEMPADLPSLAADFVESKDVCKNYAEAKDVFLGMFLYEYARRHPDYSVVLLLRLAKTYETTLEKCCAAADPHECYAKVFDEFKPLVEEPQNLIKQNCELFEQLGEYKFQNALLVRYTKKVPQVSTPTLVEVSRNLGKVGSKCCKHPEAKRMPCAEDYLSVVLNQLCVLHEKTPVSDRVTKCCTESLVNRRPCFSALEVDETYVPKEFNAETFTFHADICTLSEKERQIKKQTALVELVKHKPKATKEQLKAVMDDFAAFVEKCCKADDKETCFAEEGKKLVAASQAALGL
Chain of lysozyme from chicken egg white (P00698 19-147): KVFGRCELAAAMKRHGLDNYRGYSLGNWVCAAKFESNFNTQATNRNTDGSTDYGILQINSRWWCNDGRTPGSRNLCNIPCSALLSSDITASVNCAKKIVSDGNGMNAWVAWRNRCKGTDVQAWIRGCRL
Chain of human insulin (P01308 whole entry, looked up): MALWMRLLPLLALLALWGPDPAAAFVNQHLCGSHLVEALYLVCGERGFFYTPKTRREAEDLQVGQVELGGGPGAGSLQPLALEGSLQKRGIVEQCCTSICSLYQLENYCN

B1: 338E6 mAb (polyreactive mouse IgA monoclonal antibody, full-length) (antibody, V domains shown)
VH: EVKLEESGGDLVKPGGSLKLSCAASGFTFSSYGMSWVRQTPDKRLEWVATISSGGSYTYYPDSVKGRFTISRDNAKNTLYLQMSSLKSEDTAMYYCARRGFYFDYWGQGTTLTVSS
VL: ETTVTQSQKFMSTSVGDRVSVTCKASQNVGTNVAWYQQKPGQSPKALIYSASYRYSGVPDRFTGSGSGTDFTLTISNVQSEDLAEYFCQQYNSYPLTFGQGTKVEIK
binds: all assays above

B2: 43G10 mAb (polyreactive mouse IgA monoclonal antibody, full-length) (antibody, V domains shown)
VH: QVQLKQSGPGLVKPSQSLSLTCSVTGYSITSGFYWTWIRQFPGNKVEWMGYINYAGNNDYNPSLKDRISITRDTSKNQFFLKLNSVTSEDTATYYCTRGTGRIEYWGQGTSVTVSS
VL: DIKMTQSPSSLAVSVGEKVSMSCKSSQSLLYSYNQKNYLAWYQQAPGQSPKLLIYWASTRESGVPDRFTGSGSGTDFTLTISNVKTEDLAVYYCQQYHSHPLTFGQGTKVEIK
binds: all assays above
